Values belong to the substance of their own block, whether it stands above or below them.
How the values were obtained:
[1] = molecular target: H-2D^b MHC class I molecule (mouse) (UniProt P01899); experiment: FACS on RMA cells; IFN +, peptide -, hβ2m +
[2] = molecular target: H-2D^b MHC class I molecule (mouse) (UniProt P01899); experiment: FACS on CMT.64 cells; IFN * (so in the source), peptide +, hβ2m +
[3] = molecular target: H-2D^b MHC class I molecule (mouse) (UniProt P01899); experiment: FACS on RMA cells; IFN +, peptide -, hβ2m -
[4] = molecular target: H-2D^b MHC class I molecule (mouse) (UniProt P01899); experiment: FACS on RMA cells; IFN -, peptide -, hβ2m -
[5] = molecular target: H-2D^b MHC class I molecule (mouse) (UniProt P01899); experiment: FACS on CMT.64 cells; IFN -, peptide -, hβ2m -
[6] = molecular target: H-2D^b MHC class I molecule (mouse) (UniProt P01899); experiment: FACS on RMA cells; IFN -, peptide +, hβ2m +
[7] = molecular target: H-2D^b MHC class I molecule (mouse) (UniProt P01899); experiment: FACS on CMT.64 cells; IFN +, peptide -, hβ2m -
[8] = molecular target: H-2D^b MHC class I molecule (mouse) (UniProt P01899); experiment: FACS on CMT.64 cells; IFN -, peptide +, hβ2m +
[9] = molecular target: H-2D^b MHC class I molecule (mouse) (UniProt P01899); experiment: FACS on RMA cells; IFN +, peptide +, hβ2m +
[10] = molecular target: H-2D^b MHC class I molecule (mouse) (UniProt P01899); experiment: FACS on RMA cells; IFN +, peptide +, hβ2m -
[11] = molecular target: H-2D^b MHC class I molecule (mouse) (UniProt P01899); experiment: FACS on RMA-S cells; IFN -, peptide +, hβ2m +
[12] = molecular target: H-2D^b MHC class I molecule (mouse) (UniProt P01899); experiment: FACS on RMA-S cells; IFN +, peptide -, hβ2m +
[13] = molecular target: H-2D^b MHC class I molecule (mouse) (UniProt P01899); experiment: FACS on RMA-S cells; IFN +, peptide +, hβ2m +
[14] = molecular target: H-2D^b MHC class I molecule (mouse) (UniProt P01899); experiment: FACS on RMA-S cells; IFN -, peptide -, hβ2m -
[15] = molecular target: H-2D^b MHC class I molecule (mouse) (UniProt P01899); experiment: FACS on RMA-S cells; IFN +, peptide -, hβ2m -
[16] = molecular target: H-2D^b MHC class I molecule (mouse) (UniProt P01899); experiment: FACS on RMA-S cells; IFN +, peptide +, hβ2m -
[17] = molecular target: H-2D^b MHC class I molecule (mouse) (UniProt P01899); experiment: FACS on CMT.1-10 cells (rTAP1 transfectant)
[18] = molecular target: H-2D^b MHC class I molecule (mouse) (UniProt P01899); experiment: FACS on CMT.2-10 cells (rTAP2 transfectant)
[19] = molecular target: H-2D^b MHC class I molecule (mouse) (UniProt P01899); experiment: single-colour FACS on RMA-S.ptml cells (TAP-1 antisense)
[20] = molecular target: H-2D^b MHC class I molecule (mouse) (UniProt P01899); experiment: FACS on CMT.64 cells treated with IFN-γ
[21] = molecular target: H-2D^b MHC class I molecule (mouse) (UniProt P01899); experiment: FACS on CMT.2-1 cells (rTAP2 transfectant)
[22] = molecular target: H-2D^b MHC class I molecule (mouse) (UniProt P01899); experiment: FACS on CMT.12-21 cells (rTAP1,2 transfectant)
[23] = molecular target: H-2D^b MHC class I molecule (mouse) (UniProt P01899); experiment: single-colour FACS on RMA-S cells (linear, 5000 events)
[24] = molecular target: H-2D^b MHC class I molecule (mouse) (UniProt P01899); experiment: FACS on CMT.64 cells
[25] = molecular target: H-2D^b MHC class I molecule (mouse) (UniProt P01899); experiment: FACS on CMT.1-4 cells (rTAP1 transfectant)
[26] = molecular target: human β2-microglobulin (human) (UniProt P61769); experiment: FACS on RMA-S cells; IFN +, peptide +, hβ2m - (no hβ2m added: background)
[27] = molecular target: human β2-microglobulin (human) (UniProt P61769); experiment: FACS on RMA cells; IFN +, peptide +, hβ2m + (hβ2m bound on the cell surface)
[28] = molecular target: human β2-microglobulin (human) (UniProt P61769); experiment: FACS on RMA cells; IFN +, peptide +, hβ2m - (no hβ2m added: background)
[29] = molecular target: human β2-microglobulin (human) (UniProt P61769); experiment: FACS on RMA-S cells; IFN +, peptide -, hβ2m - (no hβ2m added: background)
[30] = molecular target: human β2-microglobulin (human) (UniProt P61769); experiment: FACS on RMA-S cells; IFN +, peptide +, hβ2m + (hβ2m bound on the cell surface)
[31] = molecular target: human β2-microglobulin (human) (UniProt P61769); experiment: FACS on RMA cells; IFN -, peptide -, hβ2m - (no hβ2m added: background)
[32] = molecular target: human β2-microglobulin (human) (UniProt P61769); experiment: FACS on RMA cells; IFN +, peptide -, hβ2m - (no hβ2m added: background)
[33] = molecular target: human β2-microglobulin (human) (UniProt P61769); experiment: FACS on RMA-S cells; IFN -, peptide -, hβ2m - (no hβ2m added: background)
[34] = molecular target: human β2-microglobulin (human) (UniProt P61769); experiment: FACS on RMA-S cells; IFN -, peptide +, hβ2m + (hβ2m bound on the cell surface)
[35] = molecular target: human β2-microglobulin (human) (UniProt P61769); experiment: FACS on RMA cells; IFN -, peptide +, hβ2m + (hβ2m bound on the cell surface)
[36] = molecular target: human β2-microglobulin (human) (UniProt P61769); experiment: FACS on RMA cells; IFN +, peptide -, hβ2m + (hβ2m bound on the cell surface)
[37] = molecular target: human β2-microglobulin (human) (UniProt P61769); experiment: FACS on RMA-S cells; IFN +, peptide -, hβ2m + (hβ2m bound on the cell surface)
[38] = molecular target: H-2K^b MHC class I molecule (mouse) (UniProt P01901); experiment: FACS on CMT.1-10 cells (rTAP1 transfectant)
UniProt P01901, sequence (P01901 22-305 limits assumed): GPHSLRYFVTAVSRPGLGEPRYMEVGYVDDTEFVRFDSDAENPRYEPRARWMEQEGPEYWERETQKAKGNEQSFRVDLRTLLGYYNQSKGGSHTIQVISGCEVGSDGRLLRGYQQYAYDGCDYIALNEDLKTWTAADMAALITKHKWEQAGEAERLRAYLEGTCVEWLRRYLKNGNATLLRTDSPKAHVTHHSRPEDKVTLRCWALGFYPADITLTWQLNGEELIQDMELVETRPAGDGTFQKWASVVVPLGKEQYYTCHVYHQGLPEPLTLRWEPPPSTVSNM

[39] = molecular target: H-2K^b MHC class I molecule (mouse) (UniProt P01901); experiment: FACS on CMT.neo cells (vector control)
[40] = molecular target: H-2K^b MHC class I molecule (mouse) (UniProt P01901); experiment: FACS on CMT.2-10 cells (rTAP2 transfectant)
[41] = molecular target: H-2K^b MHC class I molecule (mouse) (UniProt P01901); experiment: FACS on CMT.1-1 cells (rTAP1 transfectant)
[42] = molecular target: H-2K^b MHC class I molecule (mouse) (UniProt P01901); experiment: single-colour FACS on RMA-S.ptml cells (TAP-1 antisense)
[43] = molecular target: H-2K^b MHC class I molecule (mouse) (UniProt P01901); experiment: FACS on CMT.64 cells treated with IFN-γ
[44] = molecular target: H-2K^b MHC class I molecule (mouse) (UniProt P01901); experiment: FACS on CMT.2-1 cells (rTAP2 transfectant)
[45] = molecular target: H-2K^b MHC class I molecule (mouse) (UniProt P01901); experiment: FACS on CMT.12-21 cells (rTAP1,2 transfectant)
[46] = molecular target: H-2K^b MHC class I molecule (mouse) (UniProt P01901); experiment: single-colour FACS on RMA-S cells (linear, 5000 events)
[47] = molecular target: H-2K^b MHC class I molecule (mouse) (UniProt P01901); experiment: FACS on CMT.64 cells
[48] = molecular target: H-2K^b MHC class I molecule (mouse) (UniProt P01901); experiment: FACS on CMT.1-4 cells (rTAP1 transfectant)

UniProt P01899, sequence (P01899 25-309 limits assumed): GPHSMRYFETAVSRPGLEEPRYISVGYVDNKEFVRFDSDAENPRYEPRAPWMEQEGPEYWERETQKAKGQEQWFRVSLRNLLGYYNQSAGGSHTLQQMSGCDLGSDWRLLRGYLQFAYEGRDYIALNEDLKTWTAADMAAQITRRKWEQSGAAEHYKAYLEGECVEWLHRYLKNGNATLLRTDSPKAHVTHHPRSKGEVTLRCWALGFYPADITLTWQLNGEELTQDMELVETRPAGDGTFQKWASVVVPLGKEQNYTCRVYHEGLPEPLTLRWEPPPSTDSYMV

- fluorescence units (arbitrary fluorescence units) [1]: 549
- fluorescence units (arbitrary fluorescence units) [2]: 53
- fluorescence units (arbitrary fluorescence units) [3]: 430
- fluorescence units (arbitrary fluorescence units) [4]: 173
- fluorescence units (arbitrary fluorescence units) [5]: 3
- fluorescence units (arbitrary fluorescence units) [6]: 182
- fluorescence units (arbitrary fluorescence units) [7]: 58
- fluorescence units (arbitrary fluorescence units) [8]: 5
- fluorescence units (arbitrary fluorescence units) [9]: 515
- fluorescence units (arbitrary fluorescence units) [10]: 449
- fluorescence units (arbitrary fluorescence units) [11]: 2
- fluorescence units (arbitrary fluorescence units) [12]: 2
- fluorescence units (arbitrary fluorescence units) [13]: 2
- fluorescence units (arbitrary fluorescence units) [14]: 2
- fluorescence units (arbitrary fluorescence units) [15]: 4
- fluorescence units (arbitrary fluorescence units) [16]: 1
Substance: 28-11-5s anti H-2 D^b (α1+α2) monoclonal antibody

- immunofluorescence intensity (negative control subtracted) [17]: 68
- immunofluorescence intensity (negative control subtracted) [18]: 39
- MEAN FLUORESCENCE [19]: 96.7
- immunofluorescence intensity (negative control subtracted) [20]: 1100
- immunofluorescence intensity (negative control subtracted) [21]: 10
- immunofluorescence intensity (negative control subtracted) [22]: 103
- MEAN FLUORESCENCE [23]: 130
- immunofluorescence intensity (negative control subtracted) [24]: 18
- immunofluorescence intensity (negative control subtracted) [25]: 164
Substance: 28-14-8s anti H-2 D^b (α3) monoclonal antibody

- fluorescence units (arbitrary fluorescence units) [26]: 14
- fluorescence units (arbitrary fluorescence units) [27]: 606
- fluorescence units (arbitrary fluorescence units) [28]: 4
- fluorescence units (arbitrary fluorescence units) [29]: 14
- fluorescence units (arbitrary fluorescence units) [30]: 262
- fluorescence units (arbitrary fluorescence units) [31]: 1
- fluorescence units (arbitrary fluorescence units) [32]: 6
- fluorescence units (arbitrary fluorescence units) [33]: 1
- fluorescence units (arbitrary fluorescence units) [34]: 86
- fluorescence units (arbitrary fluorescence units) [35]: 274
- fluorescence units (arbitrary fluorescence units) [36]: 406
- fluorescence units (arbitrary fluorescence units) [37]: 76
Substance: BBM.1 monoclonal antibody against human β2m

- immunofluorescence intensity (negative control subtracted) [38]: 36
- immunofluorescence intensity (negative control subtracted) [39]: 0.1
- immunofluorescence intensity (negative control subtracted) [40]: 48
- immunofluorescence intensity (negative control subtracted) [41]: 62
- MEAN FLUORESCENCE [42]: 149
- immunofluorescence intensity (negative control subtracted) [43]: 590
- immunofluorescence intensity (negative control subtracted) [44]: 3
- immunofluorescence intensity (negative control subtracted) [45]: 22
- MEAN FLUORESCENCE [46]: 222
- immunofluorescence intensity (negative control subtracted) [47]: 0
- immunofluorescence intensity (negative control subtracted) [48]: 64
Substance: Y-3 anti-H-2K^b monoclonal antibody
